Measurements reported in the supplement of paper PMC10567573.

B1: FCHO1 (parent)
chain: FTSSPSPFSSSSPENVEDSGLDSP
B2: ALKBH7 (parent)
chain: SVICRSLPEGMGPGESGQPPPAC

Variants of: B1
Assay: protein stability index of a GFP-peptide fusion (GPS, HEK-293T) (PSI 1-6); higher = more stable
Details: c terminus: a fixed tail appended
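Also: lentivirally expressed fusions sorted by FACS into six bins by GFP to DsRed ratio, PSI derived from sequencing read proportions per bin multiplied by bin number.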

Variant	protein stability index
P24Y	2.35
P24V	2.02
P24W	1.54
P24R	2.47
P24T	2.08
P24S	1.94

Variants of: B2
Assay: as above
Details: c terminus: native

Variant	protein stability index
R5Y	1.46
R5I	1.44
R5F	1.51
R5C	2.28
R5G	2.09
R5D	2.56
R5S	2.65
R5P	2.59
R5E	2.46
R5A	1.88
R5N	1.7
R5Q	2.04
R5K	2.32
R5M	1.8
R5H	2.73
R5T	2.1
R5L	1.66
P8V	1.42
P8E	2.46
P8M	2.93
P8S	2.32
P8T	1.67
P8G	2.19
P8N	2.48
P8H	2.94
P8Q	2.53

Variant	protein stability index
P8A	2.08
P8W	2.01
P8I	1.65
P21F	2.69
P21T	2.51
P21E	2.47
P21G	4.95
P21A	1.68
P21H	3.44
P21L	1.28
P21D	2.63
P21S	4.08
P21C	2.17
P21V	3.21
P21K	3.92
P21N	4.05
P21M	1.18
P21Y	2.59
P21Q	3.36
P21I	2.5
A22G	5.1
A22F	5.01
A22E	4.63
A22C	4.31
A22D	5.53
I3A	2.19

Variant	protein stability index
I3N	2.23
I3V	1.84
I3Y	1.62
I3S	2.51
I3E	2.88
I3P	2.4
I3H	3.61
I3T	1.92
I3Q	1.49
I3F	1.66
I3L	1.6
I3R	2.64
I3M	1.43
I3K	1.65
G10S	3.04
G10P	1.88
G10A	2.59
G10C	1.95
G10T	1.03
G10D	2.29
G10I	1.95
G10L	1.51
G10F	1.89
G10R	1.76
G10M	3.27
G10E	1.91

Variant	protein stability index
G10Y	1.91
G10N	1.5
G10K	1.91
P20Q	1.64
P20C	2.42
P20S	3.75
P20G	4.91
P20R	4.09
P20E	3.55
P20N	4.14
P20D	4.12
P20T	2.08
P20I	3.72
P20F	2.45
P20M	1.79
P20H	3.78
P20K	4.38
P20Y	3.31
L7V	1.99
L7T	3.06
L7F	2.35
L7C	2.05
L7E	2.16
L7M	1.67
L7H	1.63
L7Q	2.67

Variant	protein stability index
L7R	1.85
L7D	2.98
L7I	2.36
L7S	2.14
L7A	2.32
L7Y	1.67
S16D	2.2
S16E	1.81
S16F	2.37
S16Q	1.8
S16V	3.02
S16P	2.07
S16R	2.12
S16T	1.92
S16H	2.07
S16N	2.06
S16K	2.28
S16M	2.59
S16Y	1.95
S16I	1.59
S16A	1.97
S16G	2.29
M11P	1.84
M11F	1.49
M11N	2.81
M11D	4.2

Variant	protein stability index
M11H	1.98
M11R	2.29
M11C	1.73
M11A	2.37
M11E	3.08
M11Y	2.52
M11L	1.99
M11W	1
M11S	2.23
S1E	3.06
S1H	1.98
S1P	2.23
S1D	1.87
S1M	1.47
S1G	2.23
S1R	1.39
S1I	3.78
S1T	2.2
S1N	1.63
G14R	1.67
G14W	1.26
G14F	1.61
G14Q	2.4
G14C	1.52
G14T	1.77
G14E	1.53

Variant	protein stability index
G14M	1.63
G14H	2.07
G14I	1.24
G14V	1.15
G14N	2.42
G14D	2.25
G14K	1.58
G14S	1.42
G14A	2.37
G14L	2
E15C	1.01
E15F	2.49
E15S	2.68
E15G	1.82
E15P	1.73
E15I	2.1
E15N	1.8
E15K	1.62
E15Y	1.66
E15L	1.02
E15R	1.6
E15A	1.09
E15V	2.44
E15T	2.01
E15M	2.4
E15D	2.44

Variant	protein stability index
E15Q	1.16
E15H	1.71
Q18M	1.85
Q18N	2.05
Q18Y	3.38
Q18F	3.03
Q18C	1.66
Q18E	2.15
Q18L	2.07
Q18I	2.56
Q18S	2.36
Q18K	2.16
Q18H	2.38
Q18R	2
Q18A	2.15
Q18D	2.05
C4N	2.24
C4R	1.72
C4H	2.29
C4T	1.62
C4D	1.58
C4Q	2.83
C4S	1.82
C4V	1.63
C4L	2.03
C4K	1.37

Variant	protein stability index
C4P	2.4
C4A	3.06
C4W	2.62
C4F	1.61
C4M	1.75
C4G	1.79
C4I	2.88
C4Y	1.47
P19Y	2.33
P19E	5.1
P19I	3.09
P19M	1.64
P19N	4.27
P19W	2.26
P19F	1.99
P19S	4.04
P19Q	4.22
P19L	2.19
P19R	2.69
P19T	1.95
P19K	3.18
P19D	4.84
P19C	3.13
P19A	1.71
P19H	3.66
P19V	4.2

Variant	protein stability index
E9D	2.97
E9Q	1.83
E9N	1.93
E9F	1.86
E9L	1.23
E9Y	1.85
E9S	1.5
E9M	1.55
E9K	1.7
E9W	1.68
E9H	1.77
E9G	2.54
E9I	1.99
E9R	1.91
E9T	1.7
E9C	1.02
G12D	2.52
G12L	1.85
G12P	2.37
G12A	2.17
G12M	2.68
G12K	2.22
G12S	1.87
G12Q	2
G12E	2.85
G12Y	2.04

Variant	protein stability index
G12F	1.54
G12H	1.69
G12I	1.87
G12R	1.82
G12N	2.09
G12W	1.09
G17S	1.71
G17L	2.14
G17C	1.73
G17T	1.61
G17Y	1.09
G17Q	2.11
G17H	1.4
G17R	1.38
G17D	2.36
G17E	2.45
G17K	2.94
G17N	1.95
G17I	2.46
G17A	2.39
S6R	1.95
S6I	1.43
S6Y	2.25
S6M	1.68
S6T	2.07
S6Q	2.08

Variant	protein stability index
S6C	2.03
S6K	2.28
S6D	2.54
S6E	3.01
S6H	2.71
S6P	2.05
S6L	1.6
S6A	2.01
P13F	1.55
P13E	1.92
P13C	1.92
P13H	2.18
P13I	1.75
P13L	1.39
P13M	1.55
P13V	1.4
P13D	2.4
P13K	2.16
P13A	1.73
P13R	3.33
P13N	2.4
P13W	1.57
P13Q	2.38
P13S	2.35
P13Y	1.74
P13G	1.58

Variant	protein stability index
P13T	1.81
V2D	2.05
V2P	2.31
V2I	2.77
V2T	2.9
V2K	2.14
V2A	2.4
V2E	2.4
V2C	1.73
V2Q	2.26
V2S	2.67
V2H	1.78
V2M	2.57
V2G	2.08
V2N	2.41
V2F	2.78
